Experimental data from patent publication US20220144956A1 (published 2022).

Target: T1, human TGFßRII (antigen of the Octet experiments) (human, UniProt P37173 23-166)
T1 sequence (P37173 23-166): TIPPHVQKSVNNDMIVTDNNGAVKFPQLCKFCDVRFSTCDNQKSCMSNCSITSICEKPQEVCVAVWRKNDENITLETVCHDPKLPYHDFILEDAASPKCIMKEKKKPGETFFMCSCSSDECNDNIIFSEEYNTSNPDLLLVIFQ

Kd [nM] | Binder
8.4 | XENP36181 H1.198 L1 (antibody, V domains shown) VH: QLQVQESGPGLVKPSETLSLTCTVSGGSISQSYFSWGWIRQPPGKGLEWIGSFYYGGKTYYNPSLKSRATISIDTSKNQFSLKLSSVTAADTAVYYCARGPTTIRGVIDSWGQGTLVTVSS VL: EIVLTQSPATLSLSPGERATLSCRASQSVRSYLAWYQQKPGQAPRLLIYDASNRATGIPARFSGSGSGTDFTLTISSLEPEDFAVYYCQQRSNWPPTFGQGTKVEIK
7.43 | XENP36182 H1.199 L1 (antibody, V domains shown) VH: QLQVQESGPGLVKPSETLSLTCTVSGGSISQSYFSWGWIRQPPGKGLEWIGSFYYGGKTYYNPSLKSRATISIDTSKNQFSLKLSSVTAADTAVYYCARGPTVIRGVIDSWGQGTLVTVSS VL: EIVLTQSPATLSLSPGERATLSCRASQSVRSYLAWYQQKPGQAPRLLIYDASNRATGIPARFSGSGSGTDFTLTISSLEPEDFAVYYCQQRSNWPPTFGQGTKVEIK
6.07 | XENP36180 H1.197 L1 (antibody, V domains shown) VH: QLQVQESGPGLVKPSETLSLTCTVSGGSISQSYFSWGWIRQPPGKGLEWIGSFYYGGKTYYNPSLKSRATISIDTSKNQFSLKLSSVTAADTAVYYCARGPTLIRGVIDSWGQGTLVTVSS VL: EIVLTQSPATLSLSPGERATLSCRASQSVRSYLAWYQQKPGQAPRLLIYDASNRATGIPARFSGSGSGTDFTLTISSLEPEDFAVYYCQQRSNWPPTFGQGTKVEIK

Target: T1, human TGFßRII (antigen of the Octet …)
Remark: another data set of the same source

Binder | Kd [nM]
TBRII-A_H1.51_L1 (antibody, V domains shown) VH: QLQVQESGPGLVKPSETLSLTCTVSGGSISNSYFSWGWIRQPPGKGLEWIGSFNYGEKTYYNPSLKSRATISIDTSKSQFSLKLSSVTAADTAVYYCPRGPTMIRGVIDSWGQGTLVTVSS VL: EIVLTQSPATLSLSPGERATLSCRASQSVRSYLAWYQQKPGQAPRLLIYDASNRATGIPARFSGSGSGTDFTLTISSLEPEDFAVYYCQQRSNWPPTFGQGTKVEIK | 53
TBRII-A_H1.1_L1 (antibody, V domains shown) VH: QLQVQESGPGLVKPSETLSLTCTVSGGSISNSYFSWGWIRQPPGKGLEWIGSFYYGEKTYYNPSLKSRATISIDTSKSQFSLKLSSVTAADTAVYYCPRGPTVIRGVIDSWGQGTLVTVSS VL: EIVLTQSPATLSLSPGERATLSCRASQSVRSYLAWYQQKPGQAPRLLIYDASNRATGIPARFSGSGSGTDFTLTISSLEPEDFAVYYCQQRSNWPPTFGQGTKVEIK | 2.1

More lines, now with the values ahead:

Kd [nM] | Binder
16.8 | XENP37821 TBRII-A_H1.274_L1 (antibody, V domains shown) VH: QLQVQESGPGLVKPSETLSLTCTVSGGSISNAYFSWGWIRQPPGKGLEWIGSFNYGGKTYYNPSLKSRATISIDTSKNQFSLKLSSVTAADTAVYYCARGPTLIRGVIDSWGQGTLVTVSS VL: EIVLTQSPATLSLSPGERATLSCRASQSVRSYLAWYQQKPGQAPRLLIYDASNRATGIPARFSGSGSGTDFTLTISSLEPEDFAVYYCQQRSNWPPTFGQGTKVEIK
411 | XENP37815 TBRII-A_H1.271_L1.53 (antibody, V domains shown) VH: QLQVQESGPGLVKPSETLSLTCTVSGGSISSSYFSWHWIRQPPGKGLEWIGSFYYGGKTYYNPSLKSRATISIDTSKNQFSLKLSSVTAADTAVYYCARGPTLIRGVIDSWGQGTLVTVSS VL: EIVLTQSPATLSLSPGERATLSCRASQSVRSYLAWYQQKPGQAPRLLIYDASNRATGIPARFSGSGSGTDFTLTISSLEPEDFAVYYCQQRSNYPPTFGQGTKVEIK
7.7 | XENP37819 TBRII-A_H1.273_L1.53 (antibody, V domains shown) VH: QLQVQESGPGLVKPSETLSLTCTVSGGSISSSYFSWHWIRQPPGKGLEWIGSFYYGGKTYYNPSLKSRATISIDTSKNQFSLKLSSVTAADTAVYYCARGPTTIRGVIDSWGQGTLVTVSS VL: EIVLTQSPATLSLSPGERATLSCRASQSVRSYLAWYQQKPGQAPRLLIYDASNRATGIPARFSGSGSGTDFTLTISSLEPEDFAVYYCQQRSNYPPTFGQGTKVEIK
46.6 | XENP37822 TBRII-A_H1.201_L1.53 (antibody, V domains shown) VH: QLQVQESGPGLVKPSETLSLTCTVSGGSISNAYFSWGWIRQPPGKGLEWIGSFYYGGKTYYNPSLKSRATISIDTSKNQFSLKLSSVTAADTAVYYCARGPTLIRGVIDSWGQGTLVTVSS VL: EIVLTQSPATLSLSPGERATLSCRASQSVRSYLAWYQQKPGQAPRLLIYDASNRATGIPARFSGSGSGTDFTLTISSLEPEDFAVYYCQQRSNYPPTFGQGTKVEIK
